What was measured:
[1] = biological target: T1, Cyclophilin 40 (human; pDEST14-6H-TEV-hCyp40) (human, UniProt Q08752 1-370); assay: ITC; 500 uM SRMEEVD titrated into 7.7 uM Cyp40 in 15 x 2.5 ul aliquots; 50 mM Hepes pH 8, 100 mM sodium chloride, 1 mM DTT; 1:1 binding model; 10 °C; details: both partners purified
T1 construct: Cyclophilin 40 (Cyp40, PPID), human; construct pDEST14-6H-TEV-hCyp40; Monomeric by dynamic light scattering; also called PPID; source: E. coli BL21 star (DE3), purified (IMAC, gel filtration on Superdex 200)
T1 sequence (Q08752 whole entry): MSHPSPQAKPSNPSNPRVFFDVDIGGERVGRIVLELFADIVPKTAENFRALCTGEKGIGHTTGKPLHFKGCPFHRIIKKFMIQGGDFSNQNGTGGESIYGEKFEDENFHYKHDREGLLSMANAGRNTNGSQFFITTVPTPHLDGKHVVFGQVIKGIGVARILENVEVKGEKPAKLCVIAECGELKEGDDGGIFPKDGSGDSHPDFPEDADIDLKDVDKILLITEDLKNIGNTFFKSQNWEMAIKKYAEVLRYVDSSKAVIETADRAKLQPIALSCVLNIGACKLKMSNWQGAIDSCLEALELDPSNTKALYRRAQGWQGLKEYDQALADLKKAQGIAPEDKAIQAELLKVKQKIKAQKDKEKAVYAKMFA

[2] = biological target: T1, Cyclophilin 40 (human; …); assay: ITC; 500 uM SRMEEVD titrated into 7.7 uM Cyp40 in 15 x 2.5 ul aliquots; 50 mM Hepes pH 8, 100 mM sodium chloride, 1 mM DTT; 1:1 binding model; 30 °C (highest attainable temperature); details: both partners purified
[3] = biological target: T1, Cyclophilin 40 (human; …); assay: ITC; 500 uM SRMEEVD titrated into 7.7 uM Cyp40 in 15 x 2.5 ul aliquots; 50 mM Hepes pH 8, 100 mM sodium chloride, 1 mM DTT; 1:1 binding model; 20 °C (value told with Supplementary Figure S2); details: both partners purified
[4] = biological target: Cyclophilin 40 (human; pDEST14-6H-TEV-hCyp40) (human) (UniProt Q08752)
Cyclophilin 40 (human; pDEST14-6H-TEV-hCyp40) (human), sequence (Q08752 whole entry): as above

SRMEEVD (also called Hsp90 peptide; Hsp90 wt) [SRMEEVD peptide (Hsp90 wild-type C-terminal peptide)]
Kd [1]: ~5 µM | Kd [2]: ~25 µM | Kd [3]: 10.7 µM

GPTIEEVD [GPTIEEVD peptide (Hsp70 wild-type C-terminal peptide)]
reduction of the PPIase activity of Cyp40 (10 nM) by 250 uM peptide, substrate Suc-A-A-P-F-p-NA, 10 °C [4]: > 30%

GAAAEEVD [GAAAEEVD peptide (Hsp70 mutant C-terminal peptide)]
reduction of the PPIase activity of Cyp40 (10 nM) by 250 uM peptide, substrate Suc-A-A-P-F-p-NA, 10 °C [4]: > 30%
